Results taken from US6469155 (UNIVERSITA DEGLI STUDI DI BOLOGNA, dated 2002).

B1: HSV-1 glycoprotein D purified from HSV-1-infected BHK cells (ligand)
chain: KYALVDASLKMADPNRFRGKDLPVLDQLTDPPGVRRVYHIQAGLPDPFQPPSLPITVYYAVLERACRSVLLNAPSEAPQIVRGASEDVRKQPYNLTIAWFRMGGNCAIPITVMEYTECSYNKSLGACPIRTQPRWNYYDSFSAVSEDNLGFLMHAPAFETAGTYLRLVKINDWTEITQFILEHRAKGSCKYALPLRIPPSACLSPQAYQQGVTVDSIGMLPRFIPENQRTVAVYSLKIAGWHGPKAPYTSTLLPPELSETPNATQPELAPEDPEDSALLEDPVGTVAPQIPPNWHIPSIQDAATPYHPPATPNNMGLIAGAVGGSLLAALVICGIVYWMRRHTQKAPKRIRLPHIREDDQPSSHQPLFY
notes: also called gD; HSV gD

Tests used:
[1] = target: B1; test: ELISA, gD immobilized, detection with anti-human IgG-peroxidase
BSA = target: T1, BSA (UniProt P02769 25-607); test: ELISA on immobilized gD
T1 construct: Unrelated control molecule
T1 sequence (P02769 25-607 limits assumed): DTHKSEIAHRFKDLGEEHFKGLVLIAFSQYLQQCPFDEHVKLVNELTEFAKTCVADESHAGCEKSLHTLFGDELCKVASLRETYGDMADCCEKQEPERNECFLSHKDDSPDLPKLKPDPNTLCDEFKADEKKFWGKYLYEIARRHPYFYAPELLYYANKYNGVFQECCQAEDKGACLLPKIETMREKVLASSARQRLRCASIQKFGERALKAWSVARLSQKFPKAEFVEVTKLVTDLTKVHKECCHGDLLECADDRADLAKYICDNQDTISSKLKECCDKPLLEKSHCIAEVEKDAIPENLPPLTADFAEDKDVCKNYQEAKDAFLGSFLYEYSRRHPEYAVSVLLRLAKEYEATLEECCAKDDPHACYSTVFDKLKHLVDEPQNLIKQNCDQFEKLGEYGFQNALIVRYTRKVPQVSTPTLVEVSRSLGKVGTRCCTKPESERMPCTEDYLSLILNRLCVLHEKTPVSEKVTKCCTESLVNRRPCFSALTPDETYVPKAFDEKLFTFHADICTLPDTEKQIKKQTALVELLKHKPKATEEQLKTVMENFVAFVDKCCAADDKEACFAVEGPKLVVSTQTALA

| Binder | reduction in the level of saturable binding relative to sVCC(HIgR)-Fc [1] [%] | binding result (BSA) |
| --- | --- | --- |
| sV(HIgR)-Fc (Fc fusion, Made in COS1 cells and purified on protein A; also called V1-Fc; soluble V domain of HIgR/PRR1; not shown: IgG Fc (Fc portion of human IgG1) from the Cos Fc Link (CFL) vector) QVVQVNDSMYGFIGTDVVLHCSFANPLPSVKITQVTWQKSTNGSKQNVAIYNPSMGVSVLAPYRERVEFLRPSFTDGTIRLSRLELEDEGVYICGFATFPTGNRESQLNLTVMA | ~30 | – |
| B1 | – | no binding |
